Source: patent publication US20260216328A1, “DISRUPTABLE LINKER COMPOSITIONS, SWITCHABLE BISPECIFIC T CELL NANOENGAGER (SWITCH-BITE) COMPOSITIONS COMPRISING THE SAME, AND METHODS OF USE THEREOF” (The Trustees of the University of Pennsylvania, priority 2023, published 2026)

Tests used:
[1] = system: Raji-Luc-GFP tumour cells; test: Humanized immune system mice with liver CD19 and Raji-Luc-GFP tumour; details: SiTE targets human CD3/CD19
[2] = mouse, in vivo; cited from earlier work
[3] = system: Raji-Luc-GFP tumour cells; test: Blinatumomab vaccine effect and CRS after discontinuation; assay type: in vivo, mouse
Procedure: Raji tumour cells and human T cells were co-cultured in serum-free medium and were treated with Blinatumomab for 24 h. After that, the cell culture medium was collected and the proteins in the medium were analyzed using proteomics. FIG. 44A: Large amount of damage associated molecule patterns (DAMPs); and FIG. 44B: tumour associated antigens were detected in the cell culture medium. FIG. 44C: Raji tumour bearing humanized NSG mice were treated with three doses of Blinatumomab. […] Then, Raji-Luc-GFP cell viability was determined. […] The data in FIG. 44C are presented as mean±s.d. (n=5) f. P value in FIG. 44C was determined using one-way ANOVA.
FIGS. 45A-45C: CRS symptoms cannot be stopped by simply stop the administration of Blinatumomab. FIG. 45A: humanized NSG mice were i.v. injected with Raji-Luc-GFP cells on day −14. Then Blinatumomab were administrated at days 1, 3, or 5. FIG. 45B: IL-6 level in mouse blood were monitored. FIG. 45C: survival curve.
It was also investigated if Blinatumomab could also induce a vaccine effect. […] It was also questioned whether CRS could be halted by simply discontinuing the administration of Blinatumomab, owing to its inherent short half-life. […] The pronounced targeting of T cells and CD19-expressing cells, coupled with heightened activation of many immune cells, served to amplify the cytokine cascade, rendering it impervious to interruption by the mere discontinuation of Blinatumomab usage. These findings underscore the critical exigency for the development of an alternative to Blinatumomab, one that can be switched off as needed, in this rapidly evolving research field.

[4] = system: Raji-Luc-GFP tumour cells; test: Cytokine release syndrome in humanized NSG-SGM3 mice with Raji-Luc-GFP tumour; assay type: in vivo, mouse
Procedure: An in vivo imaging system (IVIS) was used to monitor tumour burden in vivo. […] FIGS. 41C-41E: Mouse body weight, temperature and survival curves, respectively. n=10 mice. […] The data in FIGS. 41C-41D and FIGS. 41F-41J were plotted as mean±s.d. (n=10) from three independent experiments. […] P value in FIG. 41E was determined using Log-rank (Mantel-Cox) test.
SiTE and Blinatumomab were also compared with regard to treating symptoms of CRS and neurotoxicity. The humanized mouse model was constructed as before, but this time the piggybac transposon system was not used to express CD19 in the mouse livers. This allowed better analysis of the effects of the SiTE on CRS and neurotoxicity (FIG. 41A). Raji-Luc-GFP cells were i.v. injected at day −14. Blinatumomab, SiTE or PBS were i.v. injected to the mice at day one. Mouse tumour burden, body weight, temperature, and plasma cytokine levels were monitored (FIGS. 41B-41J).

Raji-Luc-GFP cells = test: Antitumour efficacy in normal NSG mice with Raji-Luc-GFP tumour; assay type: in vivo, mouse; details: days 1, 3, 5
From the text: FIGS. 43A-43C: comparison of the antitumour efficacy of SITE and Blinatumomab. In order to solely compare the antitumour capacity of Blinatumomab and the SiTE, CD19 antigen was not expressed in mouse liver so BiTNE or SiTE treatment will not induce on-target, off-tumour toxicity. Additionally, normal NSG mice (without humanization) were used to construct the tumour model so the mice will not develop CRS. FIG. 43A: Raji-Luc-GFP cells were i.v. injected to mice at day −14. Tumour bearing mice were treated with Blinatumomab or SiTE at days 1, 3, or 5. FIG. 43B: mice were imaged using IVIS at days 0, 5, 9, and 13 to monitor the tumour burden level. c, Quantification of the luminescence levels in FIG. 43B. The data in FIG. 43C were plotted as mean s.d. (n=5) f. P value in FIG. 43C was determined using one-way ANOVA.
In order to specifically assess the antitumour efficacy of Blinatumomab and the SiTE, expression of the CD19 antigen in the mouse liver was refrained from. By employing this approach, it was ensured that treatment with either Blinatumomab or SiTE would not elicit on-target, off-tumour toxicity. To further avoid the effect of CRS on the evaluation of the therapeutic outcome of Blinatumomab and SiTE, normal NSG mice were employed, devoid of humanization.

[5] = Half-life and biodistribution of Blinatumomab and CD3/CD19 SiTE; assay type: in vivo, mouse
Procedure: FIGS. 17A-17F: half-life and in vivo biodistribution of Blinatumomab. FIGS. 17A-17B: Blinatumomab was labeled with Cy7 and was i.v. injected to healthy untreated mice. 10 μL of blood at 0, 1, 2, 4, 6, 12, 24, 36 and 48 h was collected and imaged using IVIS. The fluorescence signal at different time points were quantified (FIG. 17B). FIG. 17C: the biodistribution of Blinatumomab in healthy mice was also investigated 24 h after Blinatumomab-Cy7 injection. FIG. 17D: In order to mimic a clinical patient treatment, a mouse model was constructed with CD19 expression in the liver and a subcutaneous B-cell lymphoma model. Blinatumomab-Cy7 was i.v. injected at 0 h. The mice were euthanized at 24 h and the distribution of Blinatumomab-Cy7 in major organs and tumour was evaluated. The Blinatumomab-Cy7 mainly accumulates in the liver, spleen and tumour. The distribution of SiTE that targets human CD3 and human CD19 antigen was evaluated in both healthy untreated mice (FIG. 17E) and in a mouse model with CD19 expression in the liver and has a subcutaneous B-cell lymphoma tumour (FIG. 17F), similar results were obtained.
Encouraged by the results from the in vitro experiments, the controllable activity of SiTE was evaluated in vivo. […] It was also analyzed if the biodistribution of SiTE both in healthy NSG mice and in Raji tumour-bearing humanized NSG mice that express CD19 antigen in the liver. […]

[6] = system: Raji-Luc-GFP tumour cells; details: around day 33, after SiTE
Procedure: FIG. 42A: NSG-SGM3 mice were treated with Busulfan at day −50 to remove mouse bone marrow. At day −49, 10^5 human CD34^+ fetal liver cells were i.v. injected to let the mouse develop a human immune system. 10^6 Raji-Luc-GFP tumour cells were i.v. injected at day −14. At days 1, 3, and 5, PBS or SiTE was i.v. injected (in the PBS group, only PBS was injected to tumour-bearing mice). […] FIGS. 42B-42E: mouse body weight, temperature, IL-6 levels, and mouse survival curves, respectively. n=10 mice. The red stars in FIG. 42B indicate that mice were euthanized. FIG. 42F: measurements of IL-1 in mouse blood at different time points. n=10 mice. […] Brain H&E staining (FIG. 42I) and human CD68 immunohistochemistry (FIG. 42J) images of mice at day 35. The data in FIGS. 42B-42F were plotted as mean z s.d. (n=10) from three independent experiments.
It was also evaluated if the SiTE can help control neurotoxicity. In the clinic, neurotoxicity is usually delayed and occurs several […] after CRS onset. Tumour-bearing mice were treated with SiTE at days 1, 3 and 5 (FIG. 42A). […] Rather than use a preventative strategy for treating CRS (FIGS. 40A-40M), here Tocilizumab was used to treat CRS when symptoms presented, so that it can be compared directly with the SiTE strategy. […] Studies have shown that IL-1 is the major cause of neurotoxicity.

Substance | tumour cell killing (IVIS) ([1]; 5 mg/kg i.v. x3, Tocilizumab pre-treatment) | on-target, off-tumour toxicity and CRS ([1]; 5 mg/kg i.v. x3) | half-life [2] [h] | release of DAMPs and tumour antigens from tumour cells ([3]; high dose, Raji cells and human T cells, 24 h) | tumour cell killing by T cells from treated mice ([3]; high dose, vs T cells from PBS-treated mice) | serum IL-6 ([3]; humanized NSG mice, persisted after cessation) | fever and body weight ([4]; 5 mg/kg, days 1, 3, 5, SiTE targets human CD3/CD19) | plasma IL-6, IFN-γ, TNF-α, CXCL10 and CCL3 concentrations ([4]; after treatment) | tumour growth (Raji-Luc-GFP cells) | biodistribution ([5]; Raji tumour-bearing humanized mice expressing human CD19 in the liver) | biodistribution ([5]; healthy mice with a humanized immune system, i.v.) | signs of lethal neurological syndrome [6]
Blinatumomab: first BiTE to receive FDA approval; links CD3-positive T cells to CD19-expressing B cell cancers | induced effective tumour cell killing | not only induced on-target, off-tumour toxicity in the liver, but led to strong CRS | 2.11 | substantial release of DAMPs and tumour antigens | substantial tumour cell killing | notable elevation of IL-6 levels | induced high fever and body weight loss | greatly increased | substantial suppression of tumour growth | high accumulation of Blinatumomab in the tumours, livers, and spleens | accumulated greatly in the spleens | –
Tocilizumab: commercialized drug for CRS treatment; antibody for the IL-6 receptor | – | – | – | – | – | – | – | – | – | – | – | developed sudden paralysis
